In publication doi:10.1101/2025.09.11.675134, “Biodistribution-Driven Discovery Identifies a Glycosidase-Cleavable Linker to Reprogram Radiotheranostics” (bioRxiv, 2025):
Like-named read-outs stand apart in the source and are kept apart here.

Experiments:
[1] = PET/CT quantification of 86Y-labeled variants in AR42J xenograft mice; format: in vivo; conditions: athymic nude, mouse, in vivo, iv, total radioactivity, 86Y-labeled, PET/CT, AR42J xenograft mice, mean ± SD, n = 3; for SUV at 1 h: 1 h post-injection; for SUV at 4 h: 4 h post-injection; for SUV at 24 h: 24 h post-injection
Experimental: For studies involving three variants (DOTA -TATE, DOTA-MVK(ε)-TATE, and DOTA-β-Gal-TATE), AR42J cells (5 × 10^6 cells per mouse) were subcutaneously inoculated into the right shoulder of the mice. Tumors were allowed to grow for 3 weeks, reaching a volume of 100 –200 mm³ before being used in subsequent experiments. For biodistribution or PET imaging studies, mice bearing subcutaneous AR42J tumors were administered 1.4 – 1.8 MBq (1 μg) of 111In-labeled DOTA-TATE variants or 2.7 – 4.9 MBq (1 μg) of 86Y-labeled DOTA-TATE variants via […]
tail vein injection. […]
PET imaging to assess the uptake of three 86Y-labeled DOTA-TATE variants (2.7 – 4.9 MBq, 1 μg) in the kidney and tumor was performed at 1, 4, and 24 hours post-injection (n = 3 per cohort) in mice bearing AR42J tumors using the MRS*PET/CT 120 scanner (MR Solutions, Guildford, UK). PET/CT data acquisition was managed using Preclinical Scan software (version 4.2.4.0, MR Solutions). Mice were anesthetized with 2% isoflurane, and static PET sc ans were acquired over 10 min. CT scans were obtained for attenuation correction and anatomical co-registration.
PET data were reconstructed using three-dimensional ordered-subsets expectation maximization, and were subsequently normalized, decay - and dead-time–corrected prior to analysis. PET/CT images were analyzed using MIM software (version 7.2.7, MIM Software Inc., Beachwood, OH, USA), and the quantitative evaluation of the maximum standardized uptake (SUVmax) and the average standardized uptake values (SUVmean) in the kidney and tumor were also performed. […]

[2] = Ex vivo biodistribution of 86Y-labeled variants in AR42J tumor-bearing mice; conditions: athymic nude, mouse, iv, 1 ug, total radioactivity, mean; for tissue uptake at 1 h: 1 h post-injection; for tissue uptake at 4 h: 4 h post-injection; for tissue uptake at 24 h: 24 h post-injection
Experimental: To independently confirm these observations, ex vivo biodistribution studies were conducted using the same ^86Y-labeled compounds at matched timepoints (Fig. S16; Table S3). […]
For studies involving three variants (DOTA -TATE, DOTA-MVK(ε)-TATE, and DOTA-β-Gal-TATE), AR42J cells (5 × 10^6 cells per mouse) were subcutaneously inoculated into the right shoulder of the mice. Tumors were allowed to grow for 3 weeks, reaching a volume of 100 –200 mm³ before being used in subsequent experiments. For biodistribution or PET imaging studies, mice bearing subcutaneous AR42J tumors were administered 1.4 – 1.8 MBq (1 μg) of 111In-labeled DOTA-TATE variants or 2.7 – 4.9 MBq (1 μg) of 86Y-labeled DOTA-TATE variants via tail vein injection. Biodistribution studies with 111In-labeled DOTA -TATE variants were performed 1 hour post -injection (n = 3 per cohort), while studies with 86Y-labeled DOTA-TATE variants were conducted at 1, 4, and 24 hours post -injection (n = 3 per cohort). Mice were euthanized by CO2 asphyxiation, and 10 tissues, including tumors, were collected. All samples were weighed and counted on a gamma counter (2480 Wizard 3, Perkin Elmer Inc., Waltham, MA, USA). Results are presented as percentage of injected activity per gram (%IA/g) and mean values ± standard deviations. […]

[3] = Urine metabolite analysis by radio-HPLC; format: in vivo; conditions: normal non-tumor-bearing athymic nu/nu mice, i.v. 13–15 MBq in 200 μL PBS (4 μg), urine 1 h post-injection, n = 3
Experimental: To elucidate the role of linker cleavage in reducing renal retention, we performed metabolite analysis of ^86Y-labeled DOTA-TATE derivatives in normal, non-tumor-bearing athymic nu/nu mice. […] These samples were analyzed by radio-HPLC alongside synthetic standards corresponding to the expected cleavage products: ^86Y-DOTA-G-M-OH and ^86Y-DOTA-NHMe (Fig. 4A).

[4] = 2.7–4.9 MBq (1 μg), read-out: Kidney SUVmax
[5] = blood, i.v. 1 μg (2.7–4.9 MBq), ex vivo gamma counting, n = 3, read-out: Blood uptake
[6] = blood, ex vivo, n = 3, read-out: Blood uptake
[7] = femur, ex vivo, n = 3, read-out: Femur uptake
[8] = heart, ex vivo, n = 3, read-out: Heart uptake
[9] = intestine, ex vivo, n = 3, read-out: Intestine uptake
[10] = ex vivo, n = 3, read-out: Tumor uptake
[11] = kidney, ex vivo, n = 3, read-out: Kidney uptake
[12] = liver, ex vivo, n = 3, read-out: Liver uptake
[13] = lung, ex vivo, n = 3, read-out: Lung uptake
[14] = muscle, ex vivo, n = 3, read-out: Muscle uptake
[15] = spleen, ex vivo, n = 3, read-out: Spleen uptake

| Structure (SMILES) | SUV at 1 h [1, 4] [SUV] | SUV at 1 h ([1]; read-out: Tumor SUVmax) [SUV] | SUV at 4 h ([1]; read-out: Kidney SUVmax) [SUV] | SUV at 24 h ([1]; read-out: Kidney SUVmax) [SUV] | SUV at 24 h ([1]; read-out: Tumor SUVmax) [SUV] | tissue uptake at 1 h [2, 5] [%ID/g] | tissue uptake at 4 h [2, 6] [%ID/g] | tissue uptake at 24 h [2, 6] [%ID/g] | tissue uptake at 1 h [2, 7] [%ID/g] | tissue uptake at 4 h [2, 7] [%ID/g] | tissue uptake at 24 h [2, 7] [%ID/g] | tissue uptake at 1 h [2, 8] [%ID/g] | tissue uptake at 4 h [2, 8] [%ID/g] | tissue uptake at 24 h [2, 8] [%ID/g] | tissue uptake at 1 h [2, 9] [%ID/g] | tissue uptake at 4 h [2, 9] [%ID/g] | tissue uptake at 24 h [2, 9] [%ID/g] | tissue uptake at 1 h [2, 10] [%ID/g] | tissue uptake at 4 h [2, 10] [%ID/g] | tissue uptake at 24 h [2, 10] [%ID/g] | other results |
| --- | --- | --- | --- | --- | --- | --- | --- | --- | --- | --- | --- | --- | --- | --- | --- | --- | --- | --- | --- | --- | --- |
| C[C@@H](O)[C@H](NC(=O)[C@@H]1CSSC[C@H](NC(=O)[C@@H](Cc2ccccc2)NC(=O)CN2CCN(CC(=O)O)CCN(CC(=O)O)CCN(CC(=O)O)CC2)C(=O)N[C@@H](Cc2ccc(O)cc2)C(=O)N[C@H](Cc2c[nH]c3ccccc23)C(=O)N[C@@H](CCCCN)C(=O)N[C@@H]([C@@H](C)O)C(=O)N1)C(=O)O [^86Y-DOTA-TATE, metal not drawn, reference compound] | 0.95 ± 0.04 | 0.85 ± 0.14 | 0.62 ± 0.06 | 0.41 ± 0.02 | 0.55 ± 0.04 | 0.22 | 0.14 | 0.03 | 0.47 | 0.35 | 0.2 | 0.37 | 0.25 | 0.09 | 0.37 | 0.51 | 0.05 | 5.98 | 4.83 | 3.48 | tissue uptake at 1 h [2, 11]: 9.29 %ID/g; tissue uptake at 4 h [2, 11]: 6.61 %ID/g; tissue uptake at 24 h [2, 11]: 3.74 %ID/g; tissue uptake at 1 h [2, 12]: 0.29 %ID/g; tissue uptake at 4 h [2, 12]: 0.25 %ID/g; tissue uptake at 24 h [2, 12]: 0.15 %ID/g; tissue uptake at 1 h [2, 13]: 0.83 %ID/g; tissue uptake at 4 h [2, 13]: 0.34 %ID/g; tissue uptake at 24 h [2, 13]: 0.13 %ID/g; tissue uptake at 1 h [2, 14]: 0.44 %ID/g; tissue uptake at 4 h [2, 14]: 0.38 %ID/g; tissue uptake at 24 h [2, 14]: 0.1 %ID/g; tissue uptake at 1 h [2, 15]: 0.4 %ID/g; tissue uptake at 4 h [2, 15]: 0.25 %ID/g; tissue uptake at 24 h [2, 15]: 0.15 %ID/g |
| C[C@@H](O)[C@H](NC(=O)[C@@H]1CSSC[C@H](NC(=O)[C@@H](Cc2ccccc2)NC(=O)CCCC(=O)Nc2cc(COC(=O)N(C)CCNC(=O)CN3CCN(CC(=O)O)CCN(CC(=O)O)CCN(CC(=O)O)CC3)ccc2O[C@@H]2O[C@H](CO)[C@H](O)[C@H](O)[C@H]2O)C(=O)N[C@@H](Cc2ccc(O)cc2)C(=O)N[C@H](Cc2c[nH]c3ccccc23)C(=O)N[C@@H](CCCCN)C(=O)N[C@@H]([C@@H](C)O)C(=O)N1)C(=O)O [^86Y-DOTA-β-Gal-TATE, metal not drawn] | 0.54 ± 0.05 | 1.96 ± 0.26 | 0.4 ± 0.02 | 0.14 ± 0.01 | 1.86 ± 0.25 | 0.32 | 0.23 | 0.02 | 0.97 | 0.96 | 1.01 | 0.33 | 0.26 | 0.11 | 0.49 | 0.33 | 0.1 | 9.71 | 9.16 | 9.03 | SUV at 4 h ([1]; read-out: Tumor SUVmax): 1.63 ± 0.09 SUV; Share of total urinary radioactivity corresponding to the cleaved metabolite (86Y-DOTA-G-M-OH or 86Y-DOTA-NHMe) [3]: 47.4%; tissue uptake at 1 h [2, 11]: 3.94 %ID/g; tissue uptake at 4 h [2, 11]: 3.29 %ID/g; tissue uptake at 24 h [2, 11]: 0.76 %ID/g; tissue uptake at 1 h [2, 12]: 0.4 %ID/g; tissue uptake at 4 h [2, 12]: 0.35 %ID/g; tissue uptake at 24 h [2, 12]: 0.27 %ID/g; tissue uptake at 1 h [2, 13]: 0.72 %ID/g; tissue uptake at 4 h [2, 13]: 0.58 %ID/g; tissue uptake at 24 h [2, 13]: 0.15 %ID/g; tissue uptake at 1 h [2, 14]: 0.48 %ID/g; tissue uptake at 4 h [2, 14]: 0.25 %ID/g; tissue uptake at 24 h [2, 14]: 0.09 %ID/g; tissue uptake at 1 h [2, 15]: 0.32 %ID/g; tissue uptake at 4 h [2, 15]: 0.5 %ID/g; tissue uptake at 24 h [2, 15]: 0.12 %ID/g |
